In the RNAGym collection of RNA variant scans (doi:10.7554/elife.80360):

B1: HDV Ribozyme (parent)
chain: GGCCGGCAUGGUCCCAGCCUCCUCGCUGGCGCCGGCUGGGCAACAUUCCGAGGGGACCGUCCCCUCGGUAAUGGCGAAUGGGACCCA

Variants of: B1
Assay: self-cleavage, relative activity (ratio to wild type); higher = more cleavage; co-transcriptional

Variant | self-cleavage
C62G A70U | 0.665
C66G A71U | 1.01
C66G A71G | 1.05
C66G A71C | 1.03
G67C A71U | 0.716
C63G U69A | 1.16
C63G U65A | 0.415
C63A G80C | 0.332
G67U U72A | 0.665
C63A A78C | 0.108
G68C G74A | 0.362
C61G U65A | 0.639
C62G A83C | 0.253
C62G C84A | 0.712
C62G C84U | 0.846
U65C A78C | 0.293
C63U G76U | 1.15
U65G A77U | 0.554
U65C G74A | 0.456
C63G C66U | 0.386
C64A C85G | 0.594
G68C G81A | 0.526
C61A C84G | 0.795
C63U C75U | 0.324

Variant | self-cleavage
G67U C75U | 0.104
C66G C86A | 0.984
C66G C86G | 1.07
C66G C86U | 0.931
C61G G76A | 0.906
U65G G80C | 0.185
C61G A71U | 0.997
C61G A71G | 0.808
U65G U69C | 0.877
G68A G74A | 0.51
C63U G68A | 0.973
C64G C86A | 0.946
C66U | 1.01
C66G | 0.973
C66A | 0.975
G67A A71C | 0.752
C61G C86G | 0.941
C61G C86U | 0.772
G68C C85A | 1.17
C66G G73C | 0.46
C62U C75U | 0.173
C62A A83C | 0.315
C61U G67U | 0.842
U65G A70U | 0.892

Variant | self-cleavage
U65G A70G | 1.05
C64U A77G | 1.01
U65G C66G | 0.812
C63U U69C | 0.964
C66A U79C | 0.582
U65G A71U | 0.863
C66G C84U | 0.545
C66G C84G | 0.745
C66G A87U | 0.853
C66G A87C | 0.857
C66G A87G | 1.06
U65C A77U | 0.806
G67C A70G | 0.712
C64A U69A | 1.06
C64A U69G | 1.15
G68A A71C | 0.58
G67A G81A | 0.302
G67C A87U | 0.858
G67A G80U | 0.203
G68C | 0.911
G68A | 0.952
C61U C84A | 0.992
C61U C84G | 0.589
G68A G82U | 0.324

Variant | self-cleavage
C62G G76A | 1.02
G67A C75G | 0.181
C61U C64U | 1.2
G67C C75A | 0.0652
G67C C75U | 0.0545
G67C C75G | 0.0475
G68A A87C | 0.918
C61U A83C | 0.378
C62G U65C | 0.427
C64U G73A | 0.81
G68A U69G | 0.917
C61U A78G | 0.87
C61A A77C | 0.527
C64G G82U | 0.228
C64G G82C | 0.0811
C64U A70U | 1.01
C64A C66G | 0.489
C64A C66A | 0.573
C63U C84A | 0.76
C62U U72C | 0.636
C64A C75A | 0.237
C64A C75U | 0.332
C64A C75G | 0.18
C66U A78C | 0.178

Variant | self-cleavage
C66U A78G | 0.69
C66U A87C | 0.875
C66U A87G | 0.999
C63A G73A | 0.681
C63A G73U | 0.3
C63A G73C | 0.332
C61A U65C | 0.909
C64A G82C | 0.199
G68A U79A | 0.554
G68C U79G | 0.516
U65A A83U | 0.539
G67C U72G | 0.231
C61U U65C | 0.914
C63G A78G | 0.54
G67U G80U | 0.25
G67A A83C | 0.464
C66G G68C | 0.554
G68C A87U | 0.799
C63U C66A | 0.978
C62A U79G | 0.862
G68A C85G | 0.774
C63G U72G | 0.192
C61A C62U | 1.01
C64G C75G | 0

Variant | self-cleavage
G67U G81A | 0.254
G67U G82A | 0.28
G67U G82C | 0.182
C64G G76C | 0.702
C64G G76U | 1.05
U65C C86G | 1.18
C62A C86G | 0.975
C62A C86U | 1.03
C66G G81A | 0.408
C66G G81U | 0.214
C66G G81C | 0.193
C63U G67C | 0.96
C63U G67A | 0.933
C63U G67U | 1.02
C61U A77C | 0.65
C62A C85U | 1.05
C61U C86A | 0.812
C64U C66A | 0.95
C64U C66U | 1.01
U65G A78C | 0.119
U65G A78G | 0.957
U65A G67A | 0.98
C62G A87U | 0.716
C62G A87C | 0.661

Variant | self-cleavage
G68A A83G | 0.522
G68A A83C | 0.519
G67U U69A | 0.801
C61G A87C | 0.983
C61G G81C | 0.262
C61G G81A | 0.219
C66U G74U | 0.475
G67C A78U | 0.225
C62A G68C | 0.883
C66G G67A | 0.706
C61G G82U | 0.271
C61U C66U | 0.736
C62G G73A | 0.534
C62G G73C | 0.446
G67U A87U | 0.898
G67U A87G | 0.91
G67C U69G | 0.943
G67C U69C | 1
G67C U69A | 0.96
C64U A87C | 0.971
U65C G68C | 0.883
C62G C86A | 0.752
C62G C86U | 0.923
